From the supplement of paper PMC12042874
± gives the uncertainty stated by the source.

Experiment: amyloid nucleation score (Sup35N fusion, yeast selection) (log enrichment); library NNK3; higher = more nucleation; inactive = no reads after selection
Method in brief: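 Sup35N was fused to peptides of 20 random codons and expressed in psi-negative yeast, which were induced with 100 μM copper sulfate for 24 hours and then grown on medium lacking adenine and uracil for 7 days at 30°C. Plasmid inserts from input and output were sequenced on Illumina. The nucleation score is the DiMSum log enrichment of output over input reads, centred on the mode score of non-aggregating sequences. Sequences with under 100 input reads were left out, and random libraries had three technical output replicates.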

NALTNSVKLFVLQTIVVYMR
amyloid nucleation score: inactive

NALYTSLYRLNLGFWAQMLP
amyloid nucleation score: inactive

NAQDPIGSGYVQ
amyloid nucleation score: inactive

NASIRDGNMTFFSQAVTRLA
amyloid nucleation score: inactive

NATIFFMQ
amyloid nucleation score: 0.605 ± 0.24

NCCPIIPVDYNYNRLPIIVG
amyloid nucleation score: inactive

NCDNSNGYSTHEIEDRSTLR
amyloid nucleation score: inactive

NCMFWGCVTLRADFVRTINR
amyloid nucleation score: 1.5 ± 0.14

NCRVCCRYVNSSPDV
amyloid nucleation score: -0.974 ± 1.7

NCSGQTGFGPVMSYWTIDVR
amyloid nucleation score: -0.022 ± 0.59

NCTFAGLAMFGNILN
amyloid nucleation score: inactive

NCTNFALVSNLASTRTIADW
amyloid nucleation score: inactive

NDASYDLRRWWCKTAPGLSG
amyloid nucleation score: inactive

NDCLFNKILAVRSFTLLAGK
amyloid nucleation score: inactive

NDFLCI
amyloid nucleation score: inactive

NDGPKVARMGSVR
amyloid nucleation score: inactive

NDKYWTIHMTSLGQRLIFAE
amyloid nucleation score: 1.25 ± 0.15

NDLSGKTCNGRRVEDRAPMA
amyloid nucleation score: -0.114 ± 0.44

NDNSSATRSHSGLATRGGLV
amyloid nucleation score: inactive

NDTWCVLFRTPKLLCMSVFT
amyloid nucleation score: inactive

NDVSRNLSMFNY
amyloid nucleation score: inactive

NDWREANLF
amyloid nucleation score: inactive

NEVETESCIELTFPMQYWQV
amyloid nucleation score: 2.24 ± 0.093

NFFITTDPPGFR
amyloid nucleation score: inactive

NFIYILLSIINYWWCTYIVY
amyloid nucleation score: inactive

NFLNCVFRYIYD
amyloid nucleation score: 2.54 ± 0.067

NFLRCVHFLKFFMDFNGTSG
amyloid nucleation score: inactive

NFLVSIHVFFYCWLSMFTYW
amyloid nucleation score: inactive

NFNCSANWYHLSLLTMNHEV
amyloid nucleation score: inactive

NFRFPTNGNYGNYLKKESFV
amyloid nucleation score: inactive

NFRVLVVNVKTFLMVVKVMF
amyloid nucleation score: inactive

NFSFELMKDHYIGLQMVV
amyloid nucleation score: inactive

NFSIYYLDLISR
amyloid nucleation score: 1.95 ± 0.098

NFSMMPTMLRRVWIGMCSSM
amyloid nucleation score: inactive

NFTGSCVPVIRQMASCFSSF
amyloid nucleation score: inactive

NFTVFYLRC
amyloid nucleation score: 1.67 ± 0.12

NFVQFSTTISFDHNCHMVGC
amyloid nucleation score: inactive

NFVRGTGFVGRLESLNWKV
amyloid nucleation score: inactive

NFYRCGVWHLNWYEYDVLRL
amyloid nucleation score: inactive

NFYRFNIVRNNVLM
amyloid nucleation score: inactive

NGFMDNCAVSCRTIIVVSYR
amyloid nucleation score: 2.59 ± 0.074

NGSVSVKSLIFLDDCCSSWA
amyloid nucleation score: inactive

NGTALLKVTLAQYVGIVTLF
amyloid nucleation score: inactive

NGWLVMLYIKLTGFFP
amyloid nucleation score: inactive

NHLMTFLVWWLMIALLPHLD
amyloid nucleation score: inactive

NHLVGLNMSISMCDSLNSVF
amyloid nucleation score: inactive

NHMCSVYRWQSLERVVCKGI
amyloid nucleation score: inactive

NHNIHVNGFHFN
amyloid nucleation score: inactive

NHRSG
amyloid nucleation score: inactive

NHVILKNFFLMLQCYNFTTM
amyloid nucleation score: inactive

NIDNMSMVRILFNT
amyloid nucleation score: 1.44 ± 0.11

NIIEPFKWTTTSLYNSDFYF
amyloid nucleation score: inactive

NIIYRVGSQYSL
amyloid nucleation score: inactive

NIMYLIWWILGKRHVCNPWE
amyloid nucleation score: -0.805 ± 1.1

NINIY
amyloid nucleation score: -0.302 ± 0.96

NITFISSWIMQEYTFVLCSF
amyloid nucleation score: 1.96 ± 0.065

NIVISYPP
amyloid nucleation score: 0.749 ± 0.11

NIYYLCSFLSWLTMG
amyloid nucleation score: 2.36 ± 0.049

NKDWREVCSKLNLGSCPTPE
amyloid nucleation score: inactive

NKFMIGVRMASGTL
amyloid nucleation score: inactive

NKPCYLSSFPQCDHFFVWTD
amyloid nucleation score: inactive

NKRGNCVEKDDCFVMYEWNM
amyloid nucleation score: inactive

NKSLWGC
amyloid nucleation score: inactive

NKSWWKYVPIDDGELYMRAV
amyloid nucleation score: inactive

NKTDCETC
amyloid nucleation score: inactive

NKVTLGYMFITSLVRTSS
amyloid nucleation score: 0.491 ± 0.15

NKWLDRNKG
amyloid nucleation score: inactive

NLCRVMMFSFFTLLV
amyloid nucleation score: 1.44 ± 0.1

NLDYLVNLLCDYLES
amyloid nucleation score: -0.703 ± 1.9

NLFYDFFDYMVSRARGGRVC
amyloid nucleation score: inactive

NLGNVHVLLDQSEPVHCILL
amyloid nucleation score: inactive

NLGRFLFSICCASLFAGCNG
amyloid nucleation score: -0.245 ± 0.99

NLLPRCKLIDSWWSSHRLWV
amyloid nucleation score: -0.809 ± 1.1

NLLRNAVFIYCKHLNLFDAM
amyloid nucleation score: 0.815 ± 0.12

NLPRKGSGWDIHDRRHPWRS
amyloid nucleation score: inactive

NLRWV
amyloid nucleation score: 0.478 ± 0.25

NLSGIHIFLVSRLEWVLDNL
amyloid nucleation score: inactive

NLSLLSLVSFEVEVIQCTMR
amyloid nucleation score: inactive

NLSRRIWTHYHTQVNLIGID
amyloid nucleation score: inactive

NLSSNVLTAALK
amyloid nucleation score: inactive

NLSTFQIYDR
amyloid nucleation score: inactive

NLTFYMYIELVDLRGNAE
amyloid nucleation score: 2.29 ± 0.056

NLVAMVYSLLSSNWKEVISK
amyloid nucleation score: -0.406 ± 0.8

NLWYLVMLISDFCEPRKEWY
amyloid nucleation score: inactive

NMFRRPTVCTVQEQVTEMRV
amyloid nucleation score: inactive

NMGWSSSYH
amyloid nucleation score: inactive

NMLCTSL
amyloid nucleation score: 1.21 ± 0.11

NMMFILGFFNNKY
amyloid nucleation score: 2.38 ± 0.076

NNIPCGMGPSSSSCNASD
amyloid nucleation score: inactive

NNLTKM
amyloid nucleation score: inactive

NNNISFEEWFPS
amyloid nucleation score: inactive

NNSSLRTEVLCFDGISQFGG
amyloid nucleation score: inactive

NNSSSMSLINKSTCCLDWSS
amyloid nucleation score: 2.02 ± 0.063

NPIIKKSKLLKGHLSTCPMV
amyloid nucleation score: inactive

NPSVPTQTPVDMWACTKG
amyloid nucleation score: inactive

NPVLWVGRAF
amyloid nucleation score: inactive

NPWPAWPGTSCIRDLQTSIR
amyloid nucleation score: inactive

NQFMGRVV
amyloid nucleation score: inactive

NQLYSWWRFYGLNS
amyloid nucleation score: inactive

NRINLDSSPLKGYFLINTIT
amyloid nucleation score: inactive

NRISMFLNRT
amyloid nucleation score: inactive

NRKRFGEMNGRNYSVQGGRW
amyloid nucleation score: inactive

NRLWSYMGTVLFNPFWLVWR
amyloid nucleation score: inactive

NRRKLYKGSCGLTFRGSRER
amyloid nucleation score: inactive

NRSEEIFVSSATELTRLIVH
amyloid nucleation score: inactive

NRSSKWVISYRATICLLPMD
amyloid nucleation score: inactive

NRWIRLLNAISWGYLRMLMV
amyloid nucleation score: inactive

NSCQGE
amyloid nucleation score: inactive

NSCTDSGPMGTSFSCTLGF
amyloid nucleation score: inactive

NSFSRINKDIISSNSVG
amyloid nucleation score: inactive

NSGAA
amyloid nucleation score: inactive

NSGIFFLVMTSKLNAVLCLA
amyloid nucleation score: inactive

NSIFSVFIGMMPCLGSMENI
amyloid nucleation score: 3.1 ± 0.081

NSISSSRIAVNFAKYGNWDV
amyloid nucleation score: inactive

NSLDSRMYGI
amyloid nucleation score: inactive

NSPNTNVPGFSRGAFAGGRH
amyloid nucleation score: inactive

NSRNMVNGHLH
amyloid nucleation score: inactive

NSSNVFVLIVCMYWKFSYSC
amyloid nucleation score: inactive

NSTYSSF
amyloid nucleation score: inactive

NSVIGVFQLESSRRGLWDFI
amyloid nucleation score: 1.52 ± 0.11

NSVPRGMAFFLNAFFSLIYY
amyloid nucleation score: inactive

NSVVF
amyloid nucleation score: inactive

NSWVNSPFNLS
amyloid nucleation score: inactive

NTCSCTGFTFAAGDV
amyloid nucleation score: -0.33 ± 0.39

NTEITQLSIVLFCILYQYSV
amyloid nucleation score: 1.46 ± 0.11

NTMLKSVMVFWRMLDFRFRL
amyloid nucleation score: inactive

NTSAPSNATAAFKAITN
amyloid nucleation score: inactive

NTVSHMY
amyloid nucleation score: inactive

NTWILNC
amyloid nucleation score: inactive

NTWISMVCLLLLSDSNHTVV
amyloid nucleation score: 1.84 ± 0.082

NTWRYN
amyloid nucleation score: inactive

NVCGNDGNR
amyloid nucleation score: inactive

NVCRLRIFRSVYLLGYYTST
amyloid nucleation score: inactive

NVDGKLVD
amyloid nucleation score: inactive

NVFLSRFMVMRKMVWFTEF
amyloid nucleation score: inactive

NVFNFRVDSSDHPPVSAWWD
amyloid nucleation score: inactive

NVGITMGCNRTPCLSTWFAV
amyloid nucleation score: inactive

NVPGLSCNTSARLWRSSRLS
amyloid nucleation score: inactive

NVRGEENVKNILSGVL
amyloid nucleation score: inactive

NVRNLGRSFNWMSSCGNLCD
amyloid nucleation score: inactive

NVRVFFVSYVL
amyloid nucleation score: 0.885 ± 0.11

NVVLSVGMFLLKWS
amyloid nucleation score: 1.31 ± 0.09

NVVSWVNHACGWRDRSATMS
amyloid nucleation score: inactive

NVWDMEEERWNLKAILTMWA
amyloid nucleation score: inactive

NVWLNGWIVGMGYNNWHILW
amyloid nucleation score: 1.93 ± 0.072

NVWQFRFANRSCWFRLDIVC
amyloid nucleation score: inactive

NVYNMYS
amyloid nucleation score: 0.945 ± 0.22

NVYTYIRPRRVYK
amyloid nucleation score: inactive

NWDMAFNYNLTAFSPKGTNS
amyloid nucleation score: inactive

NWDRTIMCMYY
amyloid nucleation score: 2.08 ± 0.075

NWFRMFIGFNSCAIRRIIWD
amyloid nucleation score: inactive

NWFSSQS
amyloid nucleation score: inactive

NWFWLF
amyloid nucleation score: inactive

NWGLIMVSVEEDTDLGGSGM
amyloid nucleation score: -0.114 ± 0.88

NWGVVYYISSCNGNSSHLSS
amyloid nucleation score: 1.83 ± 0.097

NWIRS
amyloid nucleation score: inactive

NWRPV
amyloid nucleation score: inactive

NWRQNEPYSPGSKSLGWHSF
amyloid nucleation score: inactive

NYALWFANI
amyloid nucleation score: inactive

NYDKCSDPRRRRRLFFHLYD
amyloid nucleation score: inactive

NYDVPSDLRWEMLWVAYCRR
amyloid nucleation score: inactive

NYGYRRPVMILPVHR
amyloid nucleation score: inactive
